For the assay, the target named is cell surface IgG (sIgG) of the sIgG+ B cell line SU-DHL-4. Description: cell-based or functional assay.

The substance SpG toxin (from UniProt P00587 26-411) gave a concentration showing weak cytotoxicity on SU-DHL-4 (cell viability) of 1 µg/mL. As to SpA toxin, the lowest concentration with significant toxicity on SU-DHL-4 (cell viability) was 0.0001 µg/mL and the percent of SU-DHL-4 cells killed above 0.001 µg/ml was 99%.

Values taken from patent EP4647081A1.
